Experiments:
Experiment in all cases: SPR
[1] = target: F-actin-Tm composite thin filament (rabbit, UniProt P68135 1-377; P58772 1-284)
[2] = target: Rabbit cardiac α-tropomyosin (rabbit, UniProt P58772 1-284)
[3] = target: F-actin from rabbit back muscle (rabbit, UniProt P68135 1-377)

Row | Binder | Maximum Signal (Δpm) [1] | koff [1] [s⁻¹] | kon [1] [M⁻¹ s⁻¹] | Maximum Signal (Δpm) [2] | koff [2] [s⁻¹] | kon [2] [M⁻¹ s⁻¹] | Maximum Signal (Δpm) [3] | koff [3] [s⁻¹] | kon [3] [M⁻¹ s⁻¹]
1 | SKTRGKAKVTGRWK (peptide, UniProt P45379-6 275-288, looked up) | 434 Δpm | 0.0362 | 5270 | 420 Δpm | 0.0374 | 5910 | 397 Δpm | 0.0278 | 4150
2 | SKTRGKAKVTGCWK (peptide, UniProt P45379-6 275-288, looked up) [Human cTnT-C14 peptide containing HCM-linked mutation R286C] | 126 Δpm | 0.0256 | 3850 | 114 Δpm | 0.0166 | 3110 | 112 Δpm | 0.0172 | 1570
3 | SKTCGKAKVTGRWK (peptide, UniProt P45379-6 275-288, looked up) [Human cTnT-C14 peptide containing HCM-linked mutation R278C] | 134 Δpm | 0.02 | 3930 | 95.4 Δpm | 0.0219 | 2500 | 144 Δpm | 0.0169 | 1450
4 | SKTRGNAKVTGRWK (peptide, UniProt P45379-6 275-288, looked up) [Human cTnT-C14 peptide containing HCM-linked mutation K280N] | 109 Δpm | 0.041 | 6450 | 108 Δpm | 0.0351 | 6600 | 112 Δpm | 0.0415 | 3810
